Measured values: patent US20240174746A1 (Alector, published 2024)
Substitutions are numbered along the chain they refer to.

B1: TM-54 (antibody, V domains shown)
VH: QVQMQQSGPVLVKPGASVTLSCKASGYTFTTYDLNWVKQRPGQGLEWIGWIYPRGGSTEYNEKFKGKATLTVDTSSSTAYMELHSLTSEDSAVYFCAKYSIYAMDYWGQGTSVTVSS
VL: DVLMTQTPLSLPVSLGDQASISCRSSQSIVHGNGNTYLEWYLQKPGQSPKLLIYKVSNRFSGVPDRFSGSGSGTDFTLKISRVEAEDLGVYYCFQGSHVPWTFGGGTKLEMK
notes: Purified from mouse hybridoma
B2: TM-90 (antibody, V domains shown)
VH: QVHLQQSGPELVKPGASVKLSCKASGYPFTSYDINWVKQRPGQGLEWIGWIYPRDGNAKYNEKFKGKATLTVDTSSSTAYMELHSLTSENSAVYFCARVSDYHGGYGMDYWGQGTSVTVSS
VL: B1 VL with I29F, N58H, S81T, G96N, W101H, M111I
notes: Purified from mouse hybridoma
B3: TM-60 (antibody, V domains shown)
VH: QVQLQQSGPELVKPGASVKLSCKASGYTFTSYDINWVKQRPGQGLEWIGWIYPRDGNTQYIEKLKGKATLTVDTSSSTAYMELHSLTSEDSAVYFCARWIFYAMDYWGQGTSVTVSS
VL: B1 VL with V99L, W101Y, M111I
notes: Purified from mouse hybridoma
B4: TM-82 (antibody, V domains shown)
VH: QVQLQQSGAELVRPGTSVRVSCKASGYAFTNYLIEWIKQRPGQGLEWIGVINPGSGITDYSEKFKGKARLTADKSSSTAYMQLSSLTSDDSAVYFCTRSPFITTVVADYWGQGTTVTVSS
VL: DVVVTQTPLSLPVSFGDQVSISCRSSQSLANTYGNTYLSWYLHTPGQSPQLLIFGISNRFSGVPDRFSGSGSGTDFTLKISTIKPEDLGVYYCLQGTHPPRTFGGGTKLEMK
notes: Purified from mouse hybridoma
B5: TM-65 (antibody, V domains shown)
VH: QVQLQQPGAEFVKPGASVRLSCKTSGYTFTSSWMHWVKQRPGQGLEWIGEINPKNGGTNYNEKFKTKATLTVDKSSNTAYMQLSSLTSEDSAVYYCTIPTWFTYWGQGTLVTVSS
VL: DIQMNQSPSSLSASLGDTITITCRASQNINIWLSWYQQKPGNVPKLLIYKASNLHTGVPSRFSGSGSGTGFTLTISSLQPEDIATYYCLQGQSYPYTFGGGTKLGIK
notes: Purified from mouse hybridoma
B6: TM-62 (antibody, V domains shown)
VH: QVQLQQPGTELVRPGSSVKLSCKAAGYTFTRYWMHWVKQRPIQGLEWIGNIDPSDSETQYNPKFKDKATLTVDRSSSTAYMHLSSLTSEDSAVYYCARLTTLDYAMDYWGQGTSVTVSS
VL: QIVLTQSPAIMSASPGEKVTISCSASSSVSYMYWYQQKAGSSPKPWIHRTSNLASGVPARFSGSGSGTSYSLTIRSMEAEDAATYYCQQYHSYPPTFGVGTKLELK
notes: Purified from mouse hybridoma
B7: TM-61 (antibody, V domains shown)
VH: QVQLQQSGAELAKPGASVKLSCKASGYTFTNYWMNWVKQRPGQGLEWIGYINPSSDYTKYNQNFKDKATLTADKSSSTAYMQLNSLTYEDSAVYYCTRWGGSRSYWYFDVWGAGTTVTVSS
VL: DIVMTQSPSSLSASAGEKVTMSCKSSQSLLNSGNQKNYLAWYQQKPGQSPKLLIYGASTRESGVPDRFTGSGSGTDFTLTISSVQAEDLAVYYCQNDSNYPFTFGGGTKLEMK
notes: Purified from mouse hybridoma
B8: TM-66 (antibody, V domains shown)
VH: EVMLVESGGALVEPGGSLKLSCAASGITFSNYAMSWIRQTPEKRLEWVATIGSVGSYTYYPDSVKGRFTISRDNARNTLYLQMSSLRSEDTAMYYCARQEGSSHFDYWGQGTTLTVSS
VL: DVVVTQTPPSLPVSFGDQVSISCRSSQSLVNSYGKTFLSWYLHKPGQSPQLLIYGISNRFSGVPDRFSGSGSGTVFTLKISTIKPEDLGMYYCLQGTHPPLTFGAGTKLEMK
notes: Purified from mouse hybridoma
B9: TM-63 (antibody, V domains shown)
VH: QVQLQQPGAELVKFGASVKLSCKASGYTFTSFWMHWVKQRPGQGLEWIGNIDPSDSETHYSQKFKDKATLTVDRSSNTAYIQLSSLTSEDSAVYYCARSSNWDNFDYWGQGTTVTVSS
VL: DIVMTQASPSVSVTPGESVSISCRSSQSLLHVNGNTYLYWFLQRPGRSPRLLIYRMSNLASGVPDRFSGSGSGTAFTLRISRVEAEDVGVYYCMQHLQYPFSFGSGTKLEMK
notes: Purified from mouse hybridoma
B10: TM-64 (antibody, V domains shown)
VH: QVQLQQPGAELVKPGASVKLSCKASGYTFTSYWMHWVKQRPGHGLEWIGNIDPSDSDTHYNQNFRGKATLTVDKFSTTAYMHLSSLTSEDSAVYYCARSRGGTYDYGEAMDYWGQGTSVTVSS
VL: B9 VL with S8A, S12P, Q27K, V32T, Y39F, R50Q, Q98E, S102T, M111I
notes: Purified from mouse hybridoma
B11: TM-72 (antibody, V domains shown)
VH: QVQLQQPGAELVKPGTSVKLSCKASGSTFTNYWMHWVMQRPGQGLEWIGNIDPSDSDTHYNQKFKDRAKLTVDKSSSTAYMQLSGLTSEDSAVYYCARSRGGYYDYGEAMDYWGQGTSVTVSS
VL: DIVMTQAAPSVPVTPGESVSISCRSSKSLLHTNGNTYLFWFIQRPGQSPHLLIYRKSNLASGVPDRFSGSGSGTAFTLRISRVEAEDVGVYYCMQHLEYPFTFGSGTKLEIK
notes: Purified from mouse hybridoma
B12: TM-59 (antibody, V domains shown)
VH: QVQLQQSGAELAKPGASVKLSCKASGYTFISYWMHWVKQRPGQGLEWIGYVNPSSGYTKNNQKFKDKATLTADKSSSTAYMQLSSLTYEDSAVYYCAREGGSISDWYFDVWGTGTTVTVSS
VL: B11 VL with T32S, L38S, F39Y, I42L, H50Q, K56M, F101Y, S105G
notes: Purified from mouse hybridoma
B13: TM-83 (antibody, V domains shown)
VH: QVQLQQPGTELVKPGALVKLSCKASGYTFTTYWIHWVKQRPGQGLEWIGNINPSNGNTKNNERFKTKATLTVDKSSSTAYMQLSSLTSEDSAVYYCVRGDYYGTSYPFWGQGTLVTVSS
VL: DVVMTQTPLSLPVSLGDQASISCRSSQSLVHSNGITYLHWYLQKPGQSPKLLIYKVSNRFSGVPDRFSGSGSGTDFTLKISRVEAEDLGVYFCSQSTHVPYTFGGGTKLEIK
notes: Purified from mouse hybridoma

Target: T1, cynomolgus (cyno) TMEM106B (cynomolgus, UniProt Q9NUM4 2-274 (human entry))
T1 construct: Full-length cDNA transiently transfected into HEK293 cells
Experiment: flow cytometry, HEK293 cells transiently transfected with cyno TMEM106B
Method: (§1) For screening of the hybridoma cell culture supernatants, humanTMEM106B-transfected HEK293 cells were aliquoted in 96-well round bottom plates (2×10⁵ cells per well) and incubated with 50 μL of hybridoma cell culture supernatant on ice for 30 minutes. […] Cell sorting was performed on a FACS Canto system (BD Biosciences) or iQue (Intellicyt), with sort gates drawn to exclude dead (i.e., propidium iodide-positive) cells. Median fluorescence intensity (MFI) of anti-mouse-APC MFI on TMEM106B+ HEK293 cells was calculated for each clone, and those displaying a signal of at least 2-fold over background compared to a secondary-antibody only well were taken forward for further analysis and characterization.

Binder | fold-change in binding over parental HEK293 cells [fold]
B1 | 6.27
B2 | 1.32
B3 | 2.63
B4 | 1.49
B5 | 2.15
B6 | 2.93
B7 | 5.15
B8 | 7.13
B9 | 8.24
B10 | 7.12

Target: T2, mouse TMEM106B (mouse, UniProt Q80X71 2-275)
T2 construct: Full-length cDNA transiently transfected into HEK293 cells; also called muTMEM106B; murine TMEM106B
Experiment: flow cytometry, HEK293 cells transiently transfected with murine TMEM106B
Method: as §1

Binder | fold-change in binding over parental HEK293 cells [fold]
B1 | 1.17
B3 | 0.43
B4 | 0.88
B5 | 1.35
B6 | 0.86
B7 | 0.68
B11 | 0.23
B12 | 0.42
B13 | 9.91
B8 | 4.07
B9 | 0.62
B10 | 1.07

Target: T3, human TMEM106B (human, UniProt Q9NUM4 2-274)
T3 construct: Full-length cDNA transiently transfected into HEK293 cells; also called huTMEM106B
Experiment: flow cytometry, HEK293 cells transiently transfected with human TMEM106B
Method: as §1

Binder | fold-change in binding over parental HEK293 cells [fold]
B1 | 15.6
B2 | 1.25
B3 | 4.39
B5 | 4.14
B6 | 11.4
B7 | 5.07
B11 | 3.81
B12 | 8.71
B13 | 0.42
B8 | 5.03
B9 | 7.12
B10 | 12.8
